Measured values taken from publication PMC11500688.

Columns and labels:
[1] = target: HsCFAP410-CTD, C-terminal domain of Homo sapiens cilia- and flagella-associated protein 410, wild type (human) (UniProt O43822); test: crystal structure; synthetic CTD polypeptides; TbCFAP410-CTD in 2.0 M (NH4)2SO4, 5% iso-propanol, 4°C; HsCFAP410-CTD in 1.5 M NaCl, 10% ethanol, 22°C; CrCFAP410-CTD in 0.02 M CaCl2, 0.1 M sodium acetate pH 5.0, 30% MPD, 4°C
[2] = target: CrCFAP410-CTD, C-terminal domain of Chlamydomonas reinhardtii CFAP410, wild type (C. reinhardtii); test: SEC-MALS; static light scattering coupled to SEC; 50 μl at 2 mg/ml on Superdex S-200 10/300 GL; 20 mM HEPES pH 7.5, 100 mM NaCl, 1 mM DTT, 1% glycerol; Mini-DAWN Treos
[3] = target: CrCFAP410-CTD, C-terminal domain of Chlamydomonas reinhardtii CFAP410, wild type (C. reinhardtii); test: crystal structure; synthetic CTD polypeptides; TbCFAP410-CTD in 2.0 M (NH4)2SO4, 5% iso-propanol, 4°C; HsCFAP410-CTD in 1.5 M NaCl, 10% ethanol, 22°C; CrCFAP410-CTD in 0.02 M CaCl2, 0.1 M sodium acetate pH 5.0, 30% MPD, 4°C
[4] = target: CrCFAP410-CTD mutant A219E (C. reinhardtii); test: SEC-MALS; static light scattering coupled to SEC; 50 μl at 2 mg/ml on Superdex S-200 10/300 GL; 20 mM HEPES pH 7.5, 100 mM NaCl, 1 mM DTT, 1% glycerol; Mini-DAWN Treos
[5] = target: TbCFAP410-CTD, C-terminal domain of Trypanosoma brucei CFAP410, wild type (T. brucei); test: crystal structure; synthetic CTD polypeptides; TbCFAP410-CTD in 2.0 M (NH4)2SO4, 5% iso-propanol, 4°C; HsCFAP410-CTD in 1.5 M NaCl, 10% ethanol, 22°C; CrCFAP410-CTD in 0.02 M CaCl2, 0.1 M sodium acetate pH 5.0, 30% MPD, 4°C
[6] = target: CrCFAP410-CTD mutant L224P; test: static light scattering (SLS); settings: parent: 15.62
[7] = target: CrCFAP410-CTD mutant A219E; test: static light scattering (SLS); settings: parent: 15.62

Substance: HsCFAP410-CTD, C-terminal domain of Homo sapiens cilia- and flagella-associated protein 410, wild type (from UniProt O43822 212-246) (domain or fragment)
- stoichiometry N [1]: 4

Substance: CrCFAP410-CTD, C-terminal domain of Chlamydomonas reinhardtii CFAP410, wild type (domain or fragment)
- stoichiometry N [2]: 4
- stoichiometry N [3]: 4

Substance: CrCFAP410-CTD mutant A219E (domain or fragment)
- stoichiometry N [4]: 2

Substance: TbCFAP410-CTD, C-terminal domain of Trypanosoma brucei CFAP410, wild type (domain or fragment)
- stoichiometry N [5]: 4

Substance: CrCFAP410-CTD, C-terminal domain of Chlamydomonas reinhardtii CFAP410, wild type L224P
- other: molecular weight (SLS) [6]: 4.16 kDa

Substance: CrCFAP410-CTD, C-terminal domain of Chlamydomonas reinhardtii CFAP410, wild type A219E
- other: molecular weight (SLS) [7]: 8.35 kDa
